Measured values reported in patent US20110287023A1 (AstraZeneca / MedImmune, published 2011).
Where no end group is shown, it is not given here.

What was measured:
[1] = target: T1, HMGB1 in sera of septic peritonitis mice (mouse, UniProt P63158 1-215); experiment: sandwich ELISA: antibody captured on anti-human Fc, peritonitis serum added, mouse anti-HMGB1 detection, OD 450
T1 construct: also called HMGB1 from sepsis sera (ELISA); peritonitis sera HMGB1
T1 sequence (looked up): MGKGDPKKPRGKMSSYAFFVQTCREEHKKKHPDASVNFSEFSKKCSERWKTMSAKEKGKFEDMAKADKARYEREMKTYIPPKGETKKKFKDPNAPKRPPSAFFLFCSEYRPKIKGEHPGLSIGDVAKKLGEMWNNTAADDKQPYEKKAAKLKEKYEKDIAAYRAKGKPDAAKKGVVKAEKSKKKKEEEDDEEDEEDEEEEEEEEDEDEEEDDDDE
Description: HMGB1 Detection from Biological Samples: For detection of the HMGB1 from AIA joint homogenates and peritonitis sera, sandwich ELISA was performed. Goat anti-human Fc (Pierce) 14 μg/ml in PBS was coated on Immunlon IV microtiter plate over night at 4° C. After washing and blocking with 5% milk 1 hr at room temperature, G4 or S6 in blocking buffer (10 μg/ml) were added to each well of the blocked plate. The plate was washed 1 hour later and 25 μl of AIA homogenates containing 0.8 μg/ml of HMGB1 or peritonitis sera containing 7 μg/ml of HMGB1 in 0.5 M NaCl/blocking buffer were added to the wells at two fold serial dilutions. The unbound materials were removed by washing one hr after incubation. The bound HMGB1 was detected by a mouse anti-HMGB1 antibody at 2 μg/ml followed by an anti-mouse antibody conjugated with horseradish peroxidase. Mouse peritonitis sera was obtained by heart puncture 7 days after infection with heat killed staphylococcus aureus. Joint lysate was prepared from the whole paw of AIA rats as described in Example 6 below. Human sepsis sera were purchased from a commercial source.

HMGB1 peptide 166-183 = target: T2, HMGB1 peptide 166-183 (UniProt P09429 166-183, also: biotinylated, site not given here); experiment: ELISA, biotinylated peptide on NeutrAvidin plate, antibody serially diluted from 10 ug/ml, anti-human IgG-HRP, OD 450
T2 peptide (looked up): GKPDAAKKGVVKAEKSKK
Description: (§1) The plate was then blocked with 4% milk powder dissolved in PBS at 37° C. for 1 hour. The blocking solution was removed and replaced with human anti-HMG1 antibodies at various concentrations (see FIGS. 5A-B). […] HRP activity was detected with Sureblue HRP substrate (KPL). Plates were read at 450 nm using a Kinetic Microplate Reader (Molecular Devices). […] After washing and blocking with 1% BSA in PBS, the biotinylated peptides were individually added into the avidin coated wells and incubated for 30 min at room temperature. The serial diluted antibody G4, S16 and S6 at the initial concentration at 10 μg/ml were then transferred into the wells followed by adding mouse anti human IgG-HRP conjugate (Pierce). Detection was accomplished by adding 50 μl of tetramethylbenzidine (TMB) substrate (KPL) and the absorbance was read at 450 nm.

[2] = target: T3, recombinant rat HMGB-1 labelled with europium (rat, UniProt P63159 1-215, limits assumed, Eu label, molar ratio HMGB-1 to Eu 1:5); experiment: inhibition of binding of 2 nM Eu-labelled recombinant rat HMGB-1 to THP-1 cells
T3 construct: also called Europium-labeled HMGB-1
T3 sequence (looked up): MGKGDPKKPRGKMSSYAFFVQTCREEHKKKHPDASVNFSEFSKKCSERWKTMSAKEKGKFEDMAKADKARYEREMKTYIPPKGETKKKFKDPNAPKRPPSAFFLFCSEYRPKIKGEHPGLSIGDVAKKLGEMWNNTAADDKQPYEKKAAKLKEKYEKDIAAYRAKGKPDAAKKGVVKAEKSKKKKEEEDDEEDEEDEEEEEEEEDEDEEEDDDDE
Description: HMG1 binding to THP-1 Cells: Recombinant rat HMGB-1 was labeled using Eu-labelling Kit from PerkinElmer. Molar ratio of HMGB-1 to Eu is 1:5. THP-1 were cultured as the protocol from ATCC. Cells were harvested and suspended at concentration 1×10⁶/ml in assay buffer containing 1×DELFIA L*R binding buffer (PerkinElmer), 50% of DELFIA stabilizer (PerkinElmer) and 0.05% of sodium azide. 100 μl of cells (1×10⁵) was added into wells in 96 well cell culture plate. The plate was incubated with gentle shaking at 4° C. for one hour. 100 μl of assay buffer containing 2 nM of Europium-labeled HMGB-1 mixed with various concentrations (333, 166.5, 83.25, 41.6, 20.8, 10.4 and 5.2 nM) of human anti-HMGB1 antibodies E11 or G2 or soluble human RAGE-Fc, were added into each wells respectively. After one hour incubation with gentle shaking at 4° C., the cells were washed four times with 1×L*R wash buffer (PerkinElmer) by centrifuging at 1200 rpm×5 min. 200 μl of enhancement solution was added into each well to dissociate and enhance Eu fluorescence at 615 nm. The fluorescence was measured with Wallac Victor Fluorometer. Assay was performed in triplicate and human antibody R3-47 was used the negative isotype control.

HMGB1 peptide 106-123 = target: T4, HMGB1 peptide 106-123 (also: biotinylated, site and spacer not given here); experiment: ELISA, biotinylated peptide on NeutrAvidin plate, antibody serially diluted from 10 ug/ml, anti-human IgG-HRP, OD 450
T4 peptide: CSEYRPKIKGEHPGLSIG
Description: as §1

[3] = target: T5, native nuclear HMG1 from freeze-thawed 293H cells (human, UniProt P09429 1-215); experiment: sandwich ELISA: antibody titrated and captured on anti-human IgG Fc, native nuclear HMG1 at 0.7 ug/ml, mouse anti-HMGB1 and anti-mouse IgG-HRP, OD 450
T5 construct: unpurified cell supernatant
T5 sequence (looked up): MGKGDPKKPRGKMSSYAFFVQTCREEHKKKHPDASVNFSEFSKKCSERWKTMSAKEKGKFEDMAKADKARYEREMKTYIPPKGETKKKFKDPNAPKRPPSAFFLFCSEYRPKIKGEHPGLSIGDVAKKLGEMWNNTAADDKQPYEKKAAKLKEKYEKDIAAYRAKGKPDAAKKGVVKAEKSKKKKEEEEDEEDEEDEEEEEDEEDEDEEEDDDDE
Description: Sandwich ELISA (soluble HMG1): Immunoplates (EIA/RIA plate, High binding, Costar) were coated with anti human IgG Fc at 10 μg/ml in PBS (pH 7.2) and incubated at 4° C. overnight. The coating reagent was removed and the plates were rinsed briefly with PBS. The plates were then blocked with 4% milk for 1 hour at 37° C. and rinsed with PBS. The anti-HMG1 antibodies were diluted in 4% milk. For serial dilutions, the antibodies were used at a starting concentration of 20 μg/ml. The diluted anti-HMG1 antibodies were then added into plate and incubated for 1 hr at 37° C. The plate was then washed 10 times with PBST (PBS/0.1% tween 20) and incubate with antigen (HMGB1, 2 μg/ml; or 0.7 μg/ml for native HMGB1) in 4% milk and incubated at 37° C. for 1 h. The plate was then wash 10 times and incubated with mouse anti-HMGB1, 1 μg/ml in 4% milk at 37° C. for 1 h. The plate was washed 10 times and incubated with anti-mouse IgG-HRP at 1:1000 at 37° C. for 1 h. The plate was then washed and developed. HRP activity was detected with Sureblue HRP substrate (KPL). Plates were read at 450 nm using a Kinetic Microplate Reader (Molecular Devices).

B1: human anti-HMG1 antibody S6 (antibody, V domains shown)
VH: EVQLLESGGGLVQPGGSLRLSCAASGFTFSWYDMSWVRQAPGKGLEWVSRISPSGGYTMYADSVKGRFTISRDNSKNTLYLQMNSLRAEDTAVYYCARLEVGATSGGTAFDIWGQGTMVTVSS
VL: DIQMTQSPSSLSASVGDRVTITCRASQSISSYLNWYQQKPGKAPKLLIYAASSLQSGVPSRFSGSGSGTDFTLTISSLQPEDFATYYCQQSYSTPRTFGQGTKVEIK
notes: full length IgG1 made from a human Fab phage clone; two paragraphs print 'S4' for the PTA-6143 deposit; also called ATCC PTA-6143
[1]
  binding result: binds

B2: human anti-HMG1 antibody S16 (antibody, IgG1, V domains shown)
VH: EVQLLESGGGLVQPGGSLRLSCAASGFTFSWYSMLWVRQAPGKGLEWVSYISPSGGFTNYADSVKGRFTISRDNSKNTLYLQMNSLRAEDTAVYYCARWDYNSGWYYDHWGQGTLVTVSS
VL: DIQMTQSPDTLSLSPGERATLSCRASQSVNSRNLAWYQQKPGQAPRLLIYGASTRATGIPDRFSGSVSGTEFTLTISSLQPDDFATYYCQQYNSYFTFGQGTKLEIK
notes: full length IgG1 made from a human Fab phage clone; also called ATCC PTA-6259
HMGB1 peptide 166-183
  binding result: binds

B3: human anti-HMG1 antibody E11 (antibody, IgG1, V domains shown)
VH: EVQLLESGGGLVQPGGSLRLSCAASGFTFSRYQMNWVRQAPGKGLEWVSSISPSGGHTHYADSVKGRFTISRDNSKNTLYLQMNSLRAEDTAVYYCAKDGRQGKISTVDHWGQGTLVTVSS
VL: DIQMTQSPGTLSLSPGERATLSCRASQSVRSNFLAWYQQKPGQAPRLLIYGASRRASGIPDRFSGSGFGADFTLSISRLEPEDFAVYYCQQYGSSPNTFGQGSRVEIK
notes: full length IgG1 made from a human Fab phage clone
[2]
  IC50: 48.1 nM

B4: human anti-HMG1 antibody G4 (antibody, IgG1, V domains shown)
VH: EVQLLESGGGLVQPGGSLRLSCAASGFTFSWYDMTWVRQAPGKGLEWVSSISPSGGYTKYADSVKGRFTISRDNSKNTLYLQMNSLRAEDTAVYYCTTEFYDYLDVWGKGTTVTVSS
VL: DIQMTQSPGTLSLSPGEGATLSCRASQSVSSTYLAWYQQKPGQAPRLLIYEASKRATGTPARFSGSGSGTDFTLSISSLEPEDFAVYYCQHRHNWPPQWTFGQGTKVEVK
notes: full length IgG1 made from a human Fab phage clone; also called ATCC PTA-6258
HMGB1 peptide 106-123
  binding result: binds
[3]
  binding result: binds
